Source: the supplement of paper PMC11811203

B1: THAP1; numbered along this chain (parent)
chain: MVQSCSAYGCKNRYDKDKPVSFHKFPLTRPSLCKEWEAAVRRKNFKPTKYSSICSEHFTPDCFKRECNNKLLKENAVPTIFLCTEPHDKKEDLLEPQEQLPPPPLPPPVSQVDAAIGLLMPPLQTPVNLSVFCDHNYTVEDTMHQRKRIHQLEQQVEKLRKKLKTAQQRCRRQERQLEKLKEVVHFQKEKDDVSERGYVILPNDYFEIVEVPA

Variants of: B1
Assay: THAP1 transcriptional activity (GFP+/GFP- enrichment relative to wild-type constructs) (ratio to WT); higher = more THAP1 activity (PSMB5 reporter activation)
Settings: with PSMB5 promoter-GFP reporter
Method in brief: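 A lentiviral site-saturation library covering residues 2–213 of human THAP1, with each position changed to all 20 amino acids, was transduced in duplicate at MOI ~0.3 into THAP1-knockout HEK-293T cells with mClover3 knocked in at endogenous PSMB5. Five days later, BFP+ cells were sorted into GFP-dim and GFP-bright bins and variants were counted by Illumina sequencing of genomic DNA amplicons. Activity is the bright/dim read fold change averaged over replicates and divided by the mean of wild-type synonymous constructs.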

THAP1 transcriptional activity of substitutions, site by site:
G197: D 0.656, I 1.03, A 1.19, V 1.8, H 1.76, M 1.03, R 0.711, E 1, P 0.913, K 1.33, N 1.56, Q 1.29, T 1.41, W 1.8
D192: G 1.19, C 0.816, T 1.12, I 0.817, H 0.799, M 1.27, L 1.22, R 0.932, V 1.22, F 0.716, S 0.615, Q 1.23, N 0.81, W 1.13, E 0.835
K190: W 0.724, E 0.903, L 0.835, F 0.86, R 0.923, H 0.708, Q 0.807, Y 0.762, G 0.878, S 0.846, D 0.645, C 1.06, M 0.557, V 1.21, T 1.35, I 1.48, P 0.901
V183: F 0.721, W 0.798, A 1.11, L 0.753, D 0.954, S 1.48, Q 1.52, G 0.742, N 1.17, E 0.876, T 1.02, H 0.519, P 0.678, R 0.844, Y 0.941, C 1.04, M 0.882
E182: F 0.467, R 1.04, D 1.34, T 0.811, H 0.73, S 0.933, K 1.56, P 0.778, V 0.698, G 0.726, Y 0.58, I 0.428, W 0.66, C 0.657
D191: T 1.12, C 0.786, G 1.05, W 1.06, E 1.36, A 1.23, S 1.21, R 1.31, L 1.26, M 1.04, Y 0.661, I 0.874, F 0.695, P 1.02, H 0.987, K 1.22
V193: F 1.06, H 0.804, I 0.883, Y 0.789, C 1.04, D 0.999, N 1.24, A 0.82, G 1.08, L 1.21, E 0.835, T 1.25, M 0.559, K 0.694
H185: A 1.58, C 0.951, Y 0.905, T 1.07, W 0.528, S 1.02, R 1.31, L 0.359, M 0.723, K 1.87, F 0.469, V 0.579, I 0.617, G 0.927, P 0.76, N 1.01
L201: D 0.836, A 0.829, N 0.624, F 0.809, E 0.953, S 0.906, G 0.813, V 0.62, P 0.855, Q 0.653, Y 0.773, M 0.715, T 0.898, H 0.804, K 0.887, I 0.905, R 0.9, C 1.03, W 0.749
E189: R 0.881, F 0.853, T 1.08, W 1.16, V 0.53, L 1.33, Q 1.11, N 0.878, S 1.03, M 1.09, P 0.761, H 0.949, K 1.1, A 1.22, D 1.2
K188: A 1.14, S 0.937, V 0.826, H 0.646, E 0.506, Q 0.954, R 1.34, C 0.792, L 0.724, P 0.419
